# Results published in paper PMC10790764.
# B1: sdHMPV12 (VHH)
# VHH: QVQLQESGGGLVQPGGSLRLSCAASGVSLAWYAIGWFRQAPGKDREGISCISASDDSTYYRDSVKGRVTISRDNGRNTVLLQMNSLKPEDTAVYYCATLRANYCSGPPTLGPYLGQGTQVTVSS
# Target: fusion protein F of hMPV A2-GFP (CAN97-83) on infected cells (human metapneumovirus A2 (CAN97-83))
binder,measurement,value
B1,other,9 nM
